Laboratory results taken from patent publication US20100331250A1.

Experiments:
human VEGF165 (human) [1] = target: human VEGF165 (human) (UniProt P15692); assay: cell-based or functional assay
human VEGF165 (human) [2] = target: human VEGF165 (human) (UniProt P15692); assay: quantitative ELISA; serial concentrations of fusion protein mixed with 40 pM human VEGF165, detection with anti-human IgG Fc-HRP

Chain of UniProt P15692 (P15692 other isoform, or with tags, fused parts or gaps limits assumed): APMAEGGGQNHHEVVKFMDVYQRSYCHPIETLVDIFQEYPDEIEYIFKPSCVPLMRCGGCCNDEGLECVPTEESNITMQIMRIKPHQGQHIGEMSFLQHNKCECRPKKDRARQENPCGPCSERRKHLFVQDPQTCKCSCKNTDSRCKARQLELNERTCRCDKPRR

- growth activity of VEGF on HUVEC (CCK-8, endothelial cell growth assay) (human VEGF165 (human) [1]): 28 pM
- inhibitory activity against VEGF (HUVEC growth assay) (human VEGF165 (human) [1]): 14 pM
- EC50 (human VEGF165 (human) [2]): 0.136 µg/mL
Substance: VEGF-Trap (Fc fusion)
